Molecular target: the molecule itself
Assay: cryo-EM structure

B1: Simian Virus 40 (SV40) Large Tumour Antigen (LTag) (enzyme)
chain: MDKVLNREESLQLMDLLGLERSAWGNIPLMRKAYLKKCKEFHPDKGGDEEKMKKMNTLYKKMEDGVKYAHQPDFGGFWDATEIPTYGTDEWEQWWNAFNEENLFCSEEMPSSDDEATADSQHSTPPKKKRKVEDPKDFPSELLSFLSHAVFSNRTLACFAIYTTKEKAALLYKKIMEKYSVTFISRHNSYNHNILFFLTPHRHRVSAINNYAQKLCTFSFLICKGVNKEYLMYSALTRDPFSVIEESLPGGLKEHDFNPEEAEETKQVSWKLVTEYAMETKCDDVLLLLGMYLEFQYSFEMCLKCIKKEQPSHYKYHEKHYANAAIFADSKNQKTICQQAVDTVLAKKRVDSLQLTREQMLTNRFNDLLDRMDIMFGSTGSADIEEWMAGVAWLHCLLPKMDSVVYDFLKCMVYNIPKKRYWLFKGPIDSGKTTLAAALLELCGGKALNVNLPLDRLNFELGVAIDQFLVVFEDVKGTGGESRDLPSGQGINNLDNLRDYLDGSVKVNLEKKHLNKRTQIFPPGIVTMNEYSVPKTLQARFVKQIDFRPKDYLKHCLERSEFLLEKRIIQSGIALLLMLIWYRPVAEFAQSIQSRIVEWKERLDKEFSLSVYQKMKFNVAMGIGVLDWLRNSDDDDEDSQENADKNEDGGEKNMEDSGHETGIDSQSQGSFQAPQSSQSVHDHNQPYHICRGFTCFKKPPTPPPEPET
  stoichiometry N: 6

— doi:10.1101/2024.04.19.590217 (bioRxiv, 2024)
